The values that follow come from IntAct's records for PubMed 20150898.

Sequences and labels used below:
B1: Actin cytoskeleton-regulatory complex protein SLA1 (Saccharomyces cerevisiae), P32790 (parent)
chain: MTVFLGIYRAVYAYEPQTPEELAIQEDDLLYLLQKSDIDDWWTVKKRVIGSDSEEPVGLVPSTYIEEAPVLKKVRAIYDYEQVQNADEELTFHENDVFDVFDDKDADWLLVKSTVSNEFGFIPGNYVEPENGSTSKQEQAPAAAEAPAATPAAAPASAAVLPTNFLPPPQHNDRARMMQSKEDQAPDEDEEGPPPAMPARPTATTETTDATAAAVRSRTRLSYSDNDNDDEEDDYYYNSNSNNVGNHEYNTEYHSWNVTEIEGRKKKKAKLSIGNNKINFIPQKGTPHEWSIDKLVSYDNEKKHMFLEFVDPYRSLELHTGNTTTCEEIMNIIGEYKGASRDPGLREVEMASKSKKRGIVQYDFMAESQDELTIKSGDKVYILDDKKSKDWWMCQLVDSGKSGLVPAQFIEPVRDKKHTESTASGIIKSIKKNFTKSPSRSRSRSRSKSNANASWKDDELQNDVVGSAAGKRSRKSSLSSHKKNSSATKDFPNPKKSRLWVDRSGTFKVDAEFIGCAKGKIHLHKANGVKIAVAADKLSNEDLAYVEKITGFSLEKFKANDGSSSRGTDSRDSERERRRRLKEQEEKERDRRLKERELYELKKARELLDEERSRLQEKELPPIKPPRPTSTTSVPNTTSVPPAESSNNNNSSNKYDWFEFFLNCGVDVSNCQRYTINFDREQLTEDMMPDINNSMLRTLGLREGDIVRVMKHLDKKFGRENIASIPTNATGNMFSQPDGSLNVATSPETSLPQQLLPQTTSPAQTAPSTSAETDDAWTVKPASKSESNLLSKKSEFTGSMQDLLDLQPLEPKKAAASTPEPNLKDLEPVKTGGTTVPAAPVSSAPVSSAPAPLDPFKTGGNNILPLSTGFVMMPMITGGDMLPMQRTGGFVVPQTTFGMQSQVTGGILPVQKTGNGLIPISNTGGAMMPQTTFGAAATVLPLQKTGGGLIPIATTGGAQFPQTSFNVQGQQQLPTGSILPVQKTANGLISANTGVSMPTVQRTGGTMIPQTSFGVSQQLTGGAMMTQPQNTGSAMMPQTSFNAVPQITGGAMMPQTSFNALPQVTGGAMMPLQRTGGALNTFNTGGAMIPQTSFSSQAQNTGGFRPQSQFGLTLQKTGGIAPLNQNQFTGGAMNTLSTGGVLQQQQPQTMNTFNTGGVMQELQMMTTFNTGGAMQQPQMMNTFNTDGIMQQPQMMNTFNTGGAMQQPQQQALQNQPTGFGFGNGPQQSRQANIFNATASNPFGF

The variants in experiment [1] derive from B1. Particulars: with clh_yeast CHC1, P22137.
Variants of B1 are the subject of experiment [2]. The settings on record: with clh_yeast CHC1, P22137. This is another data set of the same source.

clh_yeast CHC1, P22137, sequence (P22137 whole entry): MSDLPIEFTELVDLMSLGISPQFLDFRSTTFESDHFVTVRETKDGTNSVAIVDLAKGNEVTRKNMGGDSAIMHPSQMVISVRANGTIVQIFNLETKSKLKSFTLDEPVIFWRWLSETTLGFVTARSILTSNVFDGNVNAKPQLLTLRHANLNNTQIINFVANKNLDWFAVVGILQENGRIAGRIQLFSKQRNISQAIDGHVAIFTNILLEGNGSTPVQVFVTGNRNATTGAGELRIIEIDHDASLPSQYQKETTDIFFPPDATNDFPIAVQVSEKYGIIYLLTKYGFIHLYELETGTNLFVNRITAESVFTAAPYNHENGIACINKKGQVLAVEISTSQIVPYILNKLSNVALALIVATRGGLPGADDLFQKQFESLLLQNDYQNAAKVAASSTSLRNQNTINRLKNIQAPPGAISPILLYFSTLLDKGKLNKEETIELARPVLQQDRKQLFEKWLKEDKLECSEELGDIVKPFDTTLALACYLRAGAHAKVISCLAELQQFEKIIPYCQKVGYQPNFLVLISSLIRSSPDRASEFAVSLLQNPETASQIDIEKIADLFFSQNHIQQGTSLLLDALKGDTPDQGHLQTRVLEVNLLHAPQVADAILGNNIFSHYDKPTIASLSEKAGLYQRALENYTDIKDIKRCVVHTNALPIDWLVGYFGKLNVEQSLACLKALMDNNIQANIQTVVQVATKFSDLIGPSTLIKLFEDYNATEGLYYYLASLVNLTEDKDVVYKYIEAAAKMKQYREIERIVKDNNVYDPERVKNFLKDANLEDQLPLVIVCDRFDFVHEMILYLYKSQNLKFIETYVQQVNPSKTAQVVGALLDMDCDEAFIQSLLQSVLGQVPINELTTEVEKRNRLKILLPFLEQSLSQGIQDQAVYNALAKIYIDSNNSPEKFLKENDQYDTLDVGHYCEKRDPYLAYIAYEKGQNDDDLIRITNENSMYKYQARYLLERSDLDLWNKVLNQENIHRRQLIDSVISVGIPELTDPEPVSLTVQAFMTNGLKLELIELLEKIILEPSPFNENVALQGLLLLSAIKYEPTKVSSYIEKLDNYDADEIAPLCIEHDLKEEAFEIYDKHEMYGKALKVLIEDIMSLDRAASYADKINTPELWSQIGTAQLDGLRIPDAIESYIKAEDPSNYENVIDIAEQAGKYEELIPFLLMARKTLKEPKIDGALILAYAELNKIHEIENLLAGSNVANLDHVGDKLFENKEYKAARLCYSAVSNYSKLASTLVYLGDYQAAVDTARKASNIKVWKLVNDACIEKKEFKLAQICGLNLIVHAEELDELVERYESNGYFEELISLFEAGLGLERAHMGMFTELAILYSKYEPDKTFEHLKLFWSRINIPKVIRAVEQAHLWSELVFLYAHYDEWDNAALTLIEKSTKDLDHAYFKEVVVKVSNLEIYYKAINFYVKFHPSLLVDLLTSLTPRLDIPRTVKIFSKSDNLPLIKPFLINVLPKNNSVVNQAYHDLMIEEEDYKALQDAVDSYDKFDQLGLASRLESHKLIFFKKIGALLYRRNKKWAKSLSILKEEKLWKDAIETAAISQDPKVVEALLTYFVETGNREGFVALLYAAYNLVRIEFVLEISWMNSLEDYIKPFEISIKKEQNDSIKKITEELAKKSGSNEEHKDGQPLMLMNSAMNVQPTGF

Turning to L804A, the “effect of a mutation on the interaction” value with clh_yeast CHC1, P22137 [1] is reported as “decreasing interaction”; with clh_yeast CHC1, P22137 [2], “disrupting interaction”.

With D805A, the “effect of a mutation on the interaction” value is on record as “decreasing interaction” with clh_yeast CHC1, P22137 [1] and “disrupting interaction” with clh_yeast CHC1, P22137 [2].

Consider L803A, for which the “effect of a mutation on the interaction” value is recorded as “decreasing interaction” in the experiment with clh_yeast CHC1, P22137 [1] and “disrupting interaction” in the experiment with clh_yeast CHC1, P22137 [2].
